Measurements as given in a protein production outcome set (Wang et al. 2014).

Experiment: label from the status in PepcDB records
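Also: failed if final PepcDB status was selected cloned or expressed and not failed if soluble or beyond.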

Sequence | protein production
MENEKIWIKELKEKRLAYGVSQNKLAVASHITRPYLSDIETGKAVPTQQVKEDLLNALERFNPDNPLEMLFDYVRIRFPTNDVAQIIGEVLRLNMDYMLHEDFGYYSYPEHYRFGDIVVLVSHDVSKGVLLELKGKGCRQFENFLLAQHRSWYDFFQDCMEHKGIFKRLDLAINDKTGILNIPDLAKKCKQEECISVFRSFKNYRSGELVHRDEKPYMGNTLYIGSLKSEVYFCIYEKDYEQYVKNDVPLEDAEVKNRFEIRLKNDRATQAMKDLLAHQQAEKTAFEIINRYIRFADKDDTKRRSDWKTNERWEWFIGKNRGALRLTTQPEPYSFERTLNWLHHQVAPTLKIASILDVLNGTTIISTMIQEAKLTEKHEKLIEQQHLAMEDLIT | not failed
MENEVTLLDLLWALRRAFLRLLLLALGVGLGVYALSLLLPKRYESAALLWLDLRPFPSQEALRPFPSQEALRPFPSQEALSPDQPLTSPPLASLVQALDLSLPTLRLSPAGEPASRFAQVEWDAKAQVLSLRAFGATPEEAQRRATKLLEEARSFLQARVREAYGGLAAAELARAEKALGLLEKALQEEVPQVSSRGSADLAPFLEAQGTPPPVARAQDPAATYLALKRAELLAEASRLQAQVAWLRDLLAQDGTWDRFLAESVLLSPTLPERPLAPRPLAYGVLAALGALLLGVLWVFLATVLRPGGAGVPQSDA | failed
MENFLSLFDFFKSKIRYIFLIYTIFTIYMNSKNCFINYVLLIFLDVILIIYSFIFLNKKQKYPFLFIIISTIVYAFIWLFGHCDNIYYFIILDDIFEIKADFKKKLLVAIHSSAFMMVTLKNLIFKNYDLHEILSSIAYSIIIYMAILFVFIFIHKFKDERDKLKILNSNLIEYSFNEREFLLSEERNRISQELHDSIGHSLMALSMNIKYLKGIKNRSNINEELDNMDKVIKESVQTLRSTVYNLKKLDECCDLKKEVYDIIKKFNRLDIVKINFDCASDIEKSTTTIKNTLIKTIKEGITNSLKHGNPTEINVTLTLVNSYIKLIIQDNGVGCQNIKPSAGLNGIKKRIEALNGKVAFESKARKGFTIETEIPGGF | failed
MENGEAKQSVPLLTPYKMGRFNLSHRVVLAPLTRQRSYGNVPQPHAAIYYSQRTTPGGFLITEATGVSDTAQGYQDTPGIWTKEHVEAWKPIVDAVHAKGGIFFCQIWHVGRVSNSGFQPNGKAPISCSDKPLMPQIRSNGIDEALFTPPRRLGIEEIPGIVNDFRLAARNAMEAGFDGVEIHGANGYLIDQFMKDTVNDRTDEYGGSLQNRCKFPLEIVDAVAKEIGPDRVGIRLSPFADYMESGDTNPGALGLYMAESLNKYGILYCHVIEARMKTMGEVHACPHTLMPMRKAFKGTFISAGGFTREDGNEAVSKGRTDLVAYGRWFLANPDLPKRFQVDAPLNKYDRPTFYTSDPVVGYTDYPFLESTA | not failed
MENGLWEVLGSKGLLKKHEFIRILVQCLYSLGFKNSASCLEFESKILYKTADSEFLEKQVLSGNWDSCVQVLDRIFDNSMDDTRNTALYLVFKQCLLEYLKRGDVSLALNVLRKQAPLLRMGKEKIHRLACDIVYSKEMESGEVDNCLVLDLRRKLLVELEKLIPLPIVIPERRLEHLVETAVMDQIDTCMYHNSCDAVSLYKDHCCGRDQIPSETVQILVAHKNEVWFVQFSNSGKYLATASSDCTAIIWKVLDDNKVELKHTLESHQNPVSFVSWSPDDTKLLTCGNAEVLKLWDVDTGVLRHTFGNNNTGFTVSSCAWFPDSTRLVCGSSDPERGIVMWDTDGNEIKAWRGTRIPKVVDLAVTPDGESMITVFSDKEIRILNLETKVERVISEEQPITSLSISGDGKFFIVNLSCQEIHLWDLAGEWKQPLKFSGHRQSKYVIRSCFGGLDSSFIASGSEDSQVYIWNLKNTKPLEVLSGHSMTVNCVSWNPKNPRMLASASDDQTIRIWGPGKPNKPLN | failed
MENKQVSTTQAAAKEPLIGYVHSIETFGSVDGPGIRYVAFLQGCHMRCQYCHNPDTWKLNVGDQMTADEILEDAAKYRAFWGKTGGITVSGGESLVQIDFILDLFEKAKAMNISTCLDTSGQPFTREQPFFDKFERLMKVTDISLVDIKHIDSAKHKQLTQYGNENILDMIQYMAQHHDDMWIRHVLVPQRTDYDEDLKKLGDYIAKIPNDVVQKVEVLPYHTLGVKKYHEMKIKYRLEGIESPTQDRVANAEKLLHTADYNGYKTWMPLPKL | failed
MENLKKYLEVAKIAALAGGQVLKENFGKVKKENIEEKGEKDFVSYVDKTSEERIKEVILKFFPDHEVVGEEMGAEGSGSEYRWFIDPLDGTKNYINGFPIFAVSVGLVKGEEPIVGAVYLPYFDKLYWGAKGLGAYVNGKRIKVKDNESLKHAGVVYGFPSRSRRDISIYLNIFKDVFYEVGSMRRPGAAAVDLCMVAEGIFDGMMEFEMKPWDITAGLVILKEAGGVYTLVGEPFGVSDIIAGNKALHDFMLQVAKKYMEVAV | not failed
MENSRHNEFFLPLLLCIILPIIFMLTTNIKILRKTFSFILQNSFLQSFVTIFISIILEALPFIIIGVFLSSLIQVFISEETLSRIIPKNIVLGILSAATIGLIFPVCDCAIVPIVRRLLKKGLPLPIGITFMLSVPIINPVVLTSTYYAFLSNPHAPLIRAVAGWISAVLIGFIINKLDKSKTKQAKLHEILFNERVYMPKNNPIVTSNHNHEHHKCSCGHVHHEEEKFSALTLVHVLDHVSLELQDVGRFVIMGAFLSALMQTFIPRKYILSIGHGNISSIIVMMILAYVLCVCSETDAFIARTFVNQFTNGSIVAFLIFGPMIDIKNTLMLCETFNLKFVFKLVSIIIVVCFLIGLAFNFVKIPL | failed
MENVKVSVIVPVYNVETYLEEALMSLKNQTLKEIEFLIINDGSTDNSQKIIEEIAQDDPRFRVFNVKNGGIGKAFNLGVSEAKGEYIAEFESDDYVALHAYERLYNTAKSHHADVVRCNWVEFSSEEEVERDILWQYPDKYNQLIDLKTTDLIVQVYPWNAIYKKSMIEKENVTWDEEIKSYGDTGLFWKINSASQNVIFIKDCLYFYRQDNPNSTVNNVATKVPFLFQQFKLIRSNLIEQNKFERYKGYFYKQMFEKYFWAIEKLTHLRDESVYEVIQKVAVDFRQALETDQLNDIDFEYIKQFYQIANDPAAYYEDYLKNLYKVSVVMPIHNASKYLRQTLETVCEQSLREIEIILVENGSTDNTMDIINEFAVKDPRITGISIGKSNPGHARNVGISMARGRYLQFLDADDHFEANLLQDAYYRAYDSATDILLFGMKEKLPNGEVHVVHNPLLTNGGRMSGEEISLDEVTPYLYDKLFLLEYIKENNLVNLEQFVGEDAYFTYTALLGTEKIVALNKYLLTRIVRQDGLMSTYGMNYRDEFNLHDKMLEYLKQHAPNRIEAYRLKIINTLNWFIFDMNRVDQAFKERFYQELKEKYIQQLGLDLVKKEKYSNDPEQVERITRIQNILQYNLEIYQNIYKDFGMKKTFIIPNVHIQERGGKVIFGQEKTQGNGTAIEMFSIIIADNDTSNASGVIDFVYMGDNTKIIHDSLLVSLLIKKEGTTLKSIVLQAEWEKGYTLLQENMYYTFVDNVFTIWAGYTQKYAAFDYNVRILTSREGETHFSVVRQNQGYIQDTMTSIGNELTPINKIEGNEPTTIKKAVSKSLKKAKGLLK | failed
MENWFRADTWFGRLVDVGNTFIWTYVLIALLLGLGLYFTFVSRFVQFRLLGEMGRLLVEGMNRKAFKERKGTSSFQAFAISTAARVGTGNLAGVAVAISLGGPGAIFWMWIIALIGAATGFIESTLAQIYKVKDKDGFRGGPAYYMEKALNARWAGILFAILITLCFGLIFNAVQTHTIADAFVGAYDLNPFFIGLIIAFVMAFIVFGGIRRIAVIAEVIVPTFAIAYVLIALVIVLLNITQVPSVIGLIVGNAFGIQEVVGGGFGAAIMHGIRRGLFSNEAGMGSAPNAAATAHVSHPVKQGLVQSLSVLTDTLIICSATAFLILLTDVYTVGEMGGIQLTQEALTVHIGEWSMTFVTIAISFFAFSSLLGNYYYGEANIQFISQNRALLTVFRLAFLAMILIGATSELQIIWEMADLIMGAMAIVNLIAIALLAKIAVQALTDYQHQRKQGIDPVFYKNSLPDLKNIEAWDEKPVKEKN | failed
MEPMQVVKQRRDAALNALVSGVPFIRFLNITFDRRGDELTGVLNFDDKLIGNPFLPAIHGGVTAAFLEVTAVITLSWAHLFERIESGDLAPEDILTDENMRFPKTIDFTIDYLRSGLPRDAYARAYISRAGRRYASVRVEAWQDHHDKLYAQGTGHFLMPLEHHHHHH | failed
MEPNCVQFLENRTILVTGASGFLAKVLVERILRLQPNVKRLYLLVRASDKKSAEQRYDVALGINTFGAINVLNFAKKCVKPKLLLHVSTVYVCGERPGHIVEKHFAMGESLNGKNKVDINTERRLADQKSKQFKEQGCSEEETEQAMKDFGLKRARLYGWPNTYVFTKAMGEMLLGHYRETMPIVIIRPTIITSTFSDPFPGWIEGLKTVDSVIIFYGKGILKCFLVDQKTVCDIIPVDMVVNAMIAIAADHCHDSGSHTVYHVGSSNQNPVIYKQIYEMMSRYFMKSPLVGRNGMLIVPKVTRISTLARFRVYTNLRYKLPIQILGLLSVISLSQRDKFALHNRKFKMAMRLVKLYKPYVLFKGIFDDKNMETLRIKNEAKDMEKLFGTNPKCIDWEDYFMIRISLAS | failed
MEPNKDDNVSLAATAQISAPPVLQDASSLPGFSAIPPVVPPSFPPPMAPIPMMPHPPVARPPTFRPPVSQNGGVKTSDSDSESDDEHIEISEESKQVRERQEKALQDLLVKRRAAAMAVPTNDKAVRDRLRRLGEPITLFGEQEMERRARLTQLLTRYDINGQLDKLVKDHEEDVTPKEEVDDEVLEYPFFTEGPKELREARIEIAKFSVKRAAVRIQRAKRRRDDPDEDMDAETKWALKHAKHMALDCSNFGDDRPLTGCSFSRDGKILATCSLSGVTKLWEMPQVTNTIAVLKDHKERATDVVFSPVDDCLATASADRTAKLWKTDGTLLQTFEGHLDRLARVAFHPSGKYLGTTSYDKTWRLWDINTGAELLLQEGHSRSVYGIAFQQDGALAASCGLDSLARVWDLRTGRSILVFQGHIKPVFSVNFSPNGYHLASGGEDNQCRIWDLRMRKSLYIIPAHANLVSQVKYEPQEGYFLATASYDMKVNIWSGRDFSLVKSLAGHESKVASLDITADSSCIATVSHDRTIKLWTSSGNDDEDEEKETMDIDL | failed
MEPQKESNQNYLPYPPHPQQDHDEIDLRELFKALWEGKWIVIATTFVIAVSAVLYALSLPNIYKADALLAPAESSNGGGLSKMAGQLGGLAALAGVNLGASESSQTDLAVQVMRSRQFINTFINKHDLLVPLMAGKDWDLSNNKLILDEELYNPNTGEWLRDAKGLRGATPTAQEAFEVFSKEVLSINQDKESGLYTVSMKNYSPYIAQQWVNWLIEDINKAMRERTIAETSQNLAYLNTQLQKTAVTDMQSTFYKLIEEQTKSLMLAEVQEEFVFKVVDPAVVPELKDSPKRVLICVLGILLGVMLGVAIVLIRIVFRKEDTENLEPRT | failed
MEPSAKHLQLQTLLSERHAYLMEGNREAMHQLLSSDFSFIDGQGRQFDAETYLDHYVDPDQIQWSNQISESMVVEVFETTALVQEIVEDHFSYGRSMYIGRFRSVSLYHWANEGWKWHFHQLTPLDPS | not failed
MEQLQVGQVTLTWLNGGVTHLDGGAMFGVVPKPLWSKKYPPNDQNQIELRTDPILVEAGGKRLLIESGIGNGKLTDKQKRNFGVTEESSLDESLAALGLTRGDIDIVIMTHLHFDHACGLTVWEDGRLVPAFPRAAIITSDVEWEEMRAPNIRSRNTYWKENWEPIAEQVIPFTKETEVVSGIRLIHTGGHSAGHAIVLIESDGEMAIHLGDLLGTHAHQNVLWVMAYDDYPMDSIFAKQRWLPYGIERNAWFTFYHDAYYRAVKWREDGTIAEQVKRNRPTLLEHHHHHH | not failed
MEQMKITNLTGEQISFQLILHSGNARSCIIQSLRAYKEGKKDEADALIAKAEQDLSAAHDIHFQMIQKESGGEATAFSLLLMHAEDHLMSTLSMKELVKEMLDLFKTKNI | failed
MEQNITLKDRSKLVISGVEHIYSFNDKRVELKTSVGEMVIEGENLDMSKLSIDENIISIDGTINSMVYAKPKKPQESFLKKVFR | failed
